Data: article PMC7797039, “G-Quadruplex loops regulate PARP-1 enzymatic activation”

Key:
PARP-1 [1] = molecular target: T1, PARP-1 (Homo sapiens, UniProt P09874 1-1014); assay: fluorescence anisotropy; 140 mM KCl, 8 mM MgCl2; 25 mM HEPES pH 8.0, 140 mM KCl, 8 mM MgCl2, 50 ug/ml BSA, 0.02 mM TCEP, 4% glycerol, 11.4 mM bME, 5 nM labeled DNA, 30 min room temperature, read at 25 C; details: protein: recombinant, tags: His-tag (pET28a)
PARP-1 [2] = molecular target: T1, PARP-1; assay: fluorescence anisotropy; 140 mM KCl, 8 mM MgCl2; ~14-fold tighter than c-KIT, similar to 18-bp dsDNA; 25 mM HEPES pH 8.0, 140 mM KCl, 8 mM MgCl2, 50 ug/ml BSA, 0.02 mM TCEP, 4% glycerol, 11.4 mM bME, 5 nM labeled DNA, 30 min room temperature, read at 25 C; details: protein: recombinant; tags: His-tag (pET28a); parallel G4
PARP-1 [3] = molecular target: T1, PARP-1; assay: fluorescence anisotropy; 140 mM KCl, 8 mM MgCl2; tighter than c-KIT, Kd in figure only; 25 mM HEPES pH 8.0, 140 mM KCl, 8 mM MgCl2, 50 ug/ml BSA, 0.02 mM TCEP, 4% glycerol, 11.4 mM bME, 5 nM labeled DNA, 30 min room temperature, read at 25 C; details: protein: recombinant; tags: His-tag (pET28a); parallel G4

T1 sequence (P09874 whole entry): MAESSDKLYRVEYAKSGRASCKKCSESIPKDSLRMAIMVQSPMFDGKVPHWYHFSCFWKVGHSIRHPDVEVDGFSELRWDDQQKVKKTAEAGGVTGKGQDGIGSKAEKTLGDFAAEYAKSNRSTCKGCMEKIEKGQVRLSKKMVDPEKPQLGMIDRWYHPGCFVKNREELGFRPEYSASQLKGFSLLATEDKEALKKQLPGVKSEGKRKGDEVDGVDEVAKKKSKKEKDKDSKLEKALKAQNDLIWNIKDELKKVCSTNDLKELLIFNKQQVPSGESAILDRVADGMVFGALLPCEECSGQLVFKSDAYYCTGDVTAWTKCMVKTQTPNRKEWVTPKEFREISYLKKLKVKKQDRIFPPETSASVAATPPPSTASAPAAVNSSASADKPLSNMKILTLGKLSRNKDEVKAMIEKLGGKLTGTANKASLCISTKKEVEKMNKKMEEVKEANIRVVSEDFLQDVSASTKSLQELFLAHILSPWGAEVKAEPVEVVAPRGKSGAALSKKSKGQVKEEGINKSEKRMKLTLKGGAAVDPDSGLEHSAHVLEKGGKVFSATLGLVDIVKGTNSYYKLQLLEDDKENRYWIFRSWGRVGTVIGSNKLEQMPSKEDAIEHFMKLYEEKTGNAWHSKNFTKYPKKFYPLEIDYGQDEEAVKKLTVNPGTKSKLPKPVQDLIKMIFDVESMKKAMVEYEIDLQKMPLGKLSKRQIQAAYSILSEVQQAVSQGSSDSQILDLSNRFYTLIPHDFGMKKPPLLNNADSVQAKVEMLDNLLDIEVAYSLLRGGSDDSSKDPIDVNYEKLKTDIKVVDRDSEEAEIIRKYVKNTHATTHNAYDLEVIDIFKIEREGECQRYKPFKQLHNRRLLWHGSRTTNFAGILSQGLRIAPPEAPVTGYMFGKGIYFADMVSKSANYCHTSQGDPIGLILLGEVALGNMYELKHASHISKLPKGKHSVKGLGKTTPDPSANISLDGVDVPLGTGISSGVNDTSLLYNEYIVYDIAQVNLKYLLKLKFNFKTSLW

B1: 18-bp dsDNA (dsDNA)
DNA 1: GGGTTGCGGCCGCTTGGG
DNA 2: CCCAAGCGGCCGCAACCC
Q: B1 was tested. Which Kd (PARP-1 [1]; blunt) did it give?
A: Its Kd is 0.03 ± 0.01 µM.

Q: CCCGGGCGGGCGCGAGGGAGGGGAGG (structured_DNA) [c-KIT G4DNA] was tested. Which Kd (PARP-1 [1]; parallel G4, stem-loop also possible) did it give?
A: Its Kd is 0.43 ± 0.06 µM.

Q: With TGGGTGGGTAGGGTGGGT (structured_DNA) [c-MYC G4DNA (Pu18 T14T23)] as the binder, how does the Kd (PARP-1 [1]; parallel G4) read?
A: The Kd was 0.4 ± 0.05 µM.

Q: For CGGGCGGGCGCGAGGGAGGGGAGG (structured_DNA) [c-KIT 5'], which Kd (PARP-1 [1]; parallel G4) is on record?
A: The Kd was 0.23 ± 0.009 µM.

Q: GGGCGGGCGGGAGGGGAGG (structured_DNA) [c-KIT 5':L2] was tested. Which Kd (PARP-1 [2]) did it give?
A: Its Kd is ~0.03 µM.

Q: Does CCCGGGCGGGCGGGAGGGGAGG (structured_DNA) [c-KIT L2] bind (PARP-1 [3])?
A: Result: binds
